Experimental data from paper PMC6707828 (Biochemistry, 2018).

Tests used:
[1] = molecular target: SufS (first binding site) (Escherichia coli) (UniProt P77444); test: ITC; conditions: cited from earlier work
[2] = molecular target: SufS (second binding site) (Escherichia coli) (UniProt P77444); test: ITC; conditions: cited from earlier work
SufS (alone) = SufS (alone) (Escherichia coli, UniProt P77444); conditions: covalent (Schiff base with K226)
SEC = molecular target: the molecule itself; test: SEC

For SufE (from UniProt P76194), the Kd [1] is listed as 4 µM and the Kd [2] is listed as 300 µM.

With `Cc1ncc(COP(=O)(O)O)c(C=O)c1O` [PLP] the “UV-Vis of PLP liberated from purified enzyme” value (SufS (alone)) was “UV-Vis spectroscopic analysis of PLP liberated from wild-type and the variant enzymes”.

B1: SufS E96A (enzyme, E. coli)
chain: MIFSVDKVRADFPVLSREVNGLPLAYLDSAASAQKPSQVIDAEAEFYRHGYAAVHRGIHTLSAQATEKMENVRKRASLFINARSAEELVFVRGTTAGINLVANSWGNSNVRAGDNIIISQMEHHANIVPWQMLCARVGAELRVIPLNPDGTLQLETLPTLFDEKTRLLAITHVSNVLGTENPLAEMITLAHQHGAKVLVDGAQAVMHHPVDVQALDCDFYVFSGHKLYGPTGIGILYVKEALLQEMPPWEGGGSMIATVSLSEGTTWTKAPWRFEAGTPNTGGIIGLGAALEYVSALGLNNIAEYEQNLMHYALSQLESVPDLTLYGPQNRLGVIAFNLGKHHAYDVGSFLDNYGIAVRTGHHCAMPLMAYYNVPAMCRASLAMYNTHEEVDRLVTGLQRIHRLLG
modifications: PLP cofactor (89-97% PLP incorporation)
For B1, the “stoichiometry N” value (SEC) was 2.

B2: SufS E250A (enzyme, E. coli)
chain: MIFSVDKVRADFPVLSREVNGLPLAYLDSAASAQKPSQVIDAEAEFYRHGYAAVHRGIHTLSAQATEKMENVRKRASLFINARSAEELVFVRGTTEGINLVANSWGNSNVRAGDNIIISQMEHHANIVPWQMLCARVGAELRVIPLNPDGTLQLETLPTLFDEKTRLLAITHVSNVLGTENPLAEMITLAHQHGAKVLVDGAQAVMHHPVDVQALDCDFYVFSGHKLYGPTGIGILYVKEALLQEMPPWAGGGSMIATVSLSEGTTWTKAPWRFEAGTPNTGGIIGLGAALEYVSALGLNNIAEYEQNLMHYALSQLESVPDLTLYGPQNRLGVIAFNLGKHHAYDVGSFLDNYGIAVRTGHHCAMPLMAYYNVPAMCRASLAMYNTHEEVDRLVTGLQRIHRLLG
modifications: PLP cofactor (89-97% PLP incorporation)
With B2 the “stoichiometry N” value (SEC) was 2.
